# Measurements from the RNAGym collection of RNA variant scans (doi:10.7554/elife.80360).
# B1: Hairpin Ribozyme (parent)
# chain: GUCCUCUUUCACGUGCGCGUGAAAGAGAGAAGUGAACCAGAGAAACACACGUUGUGGUAUAUUACCUGGUA
# Variants of: B1
# Test: self-cleavage, relative activity (ratio to wild type); higher = more cleavage; co-transcriptional
row,Variant,self-cleavage
1,A47G U53G,0.338
2,C48U U67G,0.0927
3,C46U C66A,0.113
4,C46U C66G,0.146
5,A47G U60A,0.139
6,A47G U60C,0.135
7,C48A U62A,0.14
8,C50A A64G,0.211
9,C46U G51U,0.256
10,C46U G51C,0.176
11,A47C U53A,0.28
12,G51A A64U,0.22
13,A49C G56C,0.12
14,A49C G57A,0.193
15,A49U C50U,0.139
16,C50U G68U,0.16
17,A49C U60G,0.166
18,A49C G54U,0.216
19,A49G G56C,0.155
20,C50G A64C,0.201
21,C48G U53G,0.128
22,C48A C66A,0.189
23,C50U A64C,0.159
24,C50U A64U,0.0365

row,Variant,self-cleavage
1,C50U U62A,0.185
2,C46G U70A,0.161
3,C46G U70G,0.149
4,C48G G54U,0.211
5,C50U A59C,0.166
6,C50U A59G,0.204
7,A49U G57C,0.0724
8,C46G U55A,0.142
9,C46G C66U,0.215
10,A49G U58A,0.217
11,C48A A71U,0.129
12,C48A A71C,0.343
13,C48A A71G,0.19
14,C48A C65A,0.131
15,A49G U63A,0.0688
16,A49G U63C,0.253
17,C50U U63A,0.172
18,C50U U63G,0.198
19,C50U U63C,0.217
20,A47G A61U,0.195
21,A47G A61C,0.132
22,G51A C65A,1.17
23,G51A C65G,0.287
24,C50G G68U,0.22

row,Variant,self-cleavage
1,C46U U53C,0.235
2,C50G G69C,0.227
3,C50G G69A,0.152
4,C48U A71G,0.242
5,A47G U55C,0.207
6,C48U A61G,0.177
7,C48A A64C,0.0601
8,A47U G69C,0.227
9,A47U U58A,0.106
10,A47U C65U,0.0249
11,A47U A49U,0.149
12,A47U A49C,0.144
13,A47G C48G,0.121
14,C46G U58A,0.256
15,C46G U58C,0.308
16,C46G U58G,0.112
17,C46U C65U,0.216
18,C50A G54A,0.742
19,C50A G54C,0.375
20,A47G U70A,0.204
21,C50U G54U,0.905
22,A47C U62A,0.195
23,C50A C65G,0.0746
24,C50A C65A,0.142

row,Variant,self-cleavage
1,C50U A71G,0.457
2,A47U U55C,0.203
3,A47U U55G,0.128
4,A49U U60A,0.281
5,A47C U52A,0.407
6,C50U G51U,0.424
7,C50U G51A,0.322
8,C50A U58A,0.183
9,C50A U58C,0.144
10,C46U U67G,0.171
11,A47U A61U,0.211
12,C46G G68C,0.13
13,A49U U52C,0.202
14,A49U U52G,0.364
15,C48G U63A,0.181
16,A47G G57C,0.159
17,G51A,1.03
18,A47G U58G,0.119
19,C48G G57U,0.101
20,C48G G57A,0.151
21,A47U A59C,0.164
22,C50A U70A,0.303
23,C50A U70G,0.252
24,C50G A59G,0.211

row,Variant,self-cleavage
1,C50G A59C,0.221
2,C50A U60C,0.419
3,C46U C48A,0.203
4,C46U C48U,0.139
5,A47G G56A,0.103
6,A47G G56C,0.132
7,C50A U62C,0.147
8,C50A U62A,0.0965
9,C50A U62G,0.177
10,C46U A49C,0.201
11,A49U G54A,0.477
12,C48G A71G,0.142
13,A47U U70G,0.141
14,A47U U70A,0.276
15,A49C G69U,0.136
16,A49C G69A,0.139
17,C48A U63C,0.198
18,A47U G51A,0.157
19,A47U U67A,0.103
20,A47U U53A,0.133
21,A47U U53C,0.0703
22,C48U U70C,0.0914
23,A47C A64U,0.218
24,C46U U55G,0.125

row,Variant,self-cleavage
1,C46U U55C,0.0817
2,C46U U55A,0.115
3,C48G U58A,0.105
4,A49U C65U,0.0248
5,A49G C65A,0.42
6,A47U G57A,0.417
7,A49U U55C,0.349
8,C50G U52G,0.312
9,C48G U67G,0.113
10,A49U G56C,0.102
11,A49U G56U,0.147
12,C50U A61U,0.13
13,C50U A61C,0.181
14,A47G C66A,0.138
15,C46U A64G,0.021
16,A47G C65U,0.156
17,C46U U52A,0.179
18,C50A A61U,0.281
19,A49U U58C,0.28
20,A49U U58G,0.15
21,A49U U58A,0.187
22,C46G G51C,0.0873
23,C46G G51A,0.154
24,C46G G51U,0.164

row,Variant,self-cleavage
1,C48U A49U,0.208
2,C48U A49G,0.153
3,C48G C66A,0.131
4,C46G U53G,0.186
5,C48A G54C,0.0747
6,C48A G54U,0.176
7,C48G U62G,0.107
8,C48G U62C,0.139
9,A49G A59G,0.145
10,A49G A59C,0.194
11,G51A A71G,0.934
12,G51A A71U,0.718
13,C46U G54A,0.237
14,C48A U60G,0.149
15,A49C A64C,0.168
16,A49C A64G,0.0856
17,A47G A71G,0.142
18,C50A G69U,0.173
19,C48A A61G,0.151
20,A49G G57U,0.22
21,A49G G69U,0.148
22,A47C U67G,0.123
23,A47C U67C,0.148
24,C48G G68A,0.226

row,Variant,self-cleavage
1,C48G G68U,0.163
2,C48G A64G,0.155
3,C48G A64U,0.149
4,A49C A61C,0.124
5,A47C C50G,0.0249
6,A47U U52A,0.148
7,A47U U52G,0.256
8,C48A U55C,0.144
9,C50G G57U,0.307
10,C48U U58A,0.214
11,C48U U58G,0.152
12,C50G U67C,0.0994
13,A47C A59G,0.0267
14,C48U A59U,0.0991
15,C50G C66U,0.146
16,C48A G56U,0.304
17,C48A G56A,0.135
18,C46U C50U,0.227
19,C46U C50A,0.0957
20,A49U G68A,0.172
21,A47U C66G,0.116
22,C48A G51C,0.152
23,C48A G51A,0.106
24,C48A G51U,0.141

row,Variant,self-cleavage
1,C50G U55C,0.16
2,C46U A71C,0.151
3,C46U A71G,0.302
4,A47G U52G,0.259
5,C50U U67G,0.181
6,C50U U67A,0.2
7,C46U U58A,0.0874
8,A49G U70G,0.453
9,A49G U70C,0.262
10,A49G U70A,0.377
11,A47U C50G,0.28
12,A47U C50A,0.113
13,C48A C50G,0.0517
14,A49U U63G,0.111
15,A49U U63A,0.183
16,C46U G69C,0.138
17,A47C C48U,0.0858
18,A47C C48G,0.0552
19,C48G A59U,0.0386
20,A47C G51A,0.303
21,A47C G51U,0.392
22,C48A U58C,0.154
23,A49C U67A,0.13
24,A49C U67G,0.109

row,Variant,self-cleavage
1,A49C U67C,0.0984
2,C48U U53G,0.112
3,C48U U53A,0.0973
4,A47C A61G,0.17
5,A47G U63C,0.248
6,A49U U70C,0.124
7,A47G U67G,0.0884
8,C46G U63C,0.103
9,C46G U63G,0.0876
10,C48A,0.157
11,C48G,0.153
12,C48U,0.158
13,A47G G68A,0.181
14,C46G G57U,0.167
15,C50G C65U,0.0289
16,A47C U63C,0.0902
17,A47C U63G,0.104
18,A47C U63A,0.127
19,C50A U55C,0.582
20,C50U C66A,0.165
21,C50U C66G,0.166
22,A49C U53A,0.0758
23,A49C U53G,0.0631
24,A49C U53C,0.27

row,Variant,self-cleavage
1,A49U U67C,0.11
2,A49U U67A,0.0529
3,C50A U53A,0.384
4,C46G G54A,0.134
5,C46G G54U,0.119
6,A47C G57A,0.225
7,A47C U55C,0.233
8,A49C C66A,0.28
9,C46U A59C,0.32
10,C48G G56U,0.193
11,A47C G56C,0.161
12,C50A A59U,0.231
13,C50U G57U,0.183
14,C50U G57C,0.16
15,C46G G69A,0.179
16,C46G G69C,0.123
17,A49U U53C,0.124
18,A49U U53G,0.167
19,A49U U53A,0.139
20,C48U G68U,0.097
21,C50G U62G,0.151
22,C50G U62C,0.158
23,C48U C66A,0.176
24,C48U G51U,0.165

row,Variant,self-cleavage
1,C48A U53G,0.191
2,C48A U53A,0.228
3,C50G U58G,0.147
4,A47G G54A,0.177
5,A47G G54C,0.266
6,A49G G68C,0.307
7,C50A G57C,0.133
8,A47C U58G,0.172
9,A47G A59C,0.134
10,A47G A59U,0.186
11,C48A G68U,0.16
12,A47G U62G,0.0586
13,A47G U62C,0.0615
14,A49C U62G,0.225
15,C50G G51C,0.327
16,C46U A47C,0.149
17,C46U A47U,0.163
18,C46U A47G,0.0613
19,C50U U55C,0.615
20,C50U U55A,0.32
21,A47C C65A,0.282
22,C50G U70C,0.498
23,G51A A59C,0.181
24,C48G G51C,0.0824

row,Variant,self-cleavage
1,C48G G51U,0.17
2,C50U G56U,0.121
3,C50G A71C,0.69
4,A49C C50A,0.139
5,A49G G51U,0.532
6,C48G C65G,0.149
7,C48G C65U,0.166
8,C48G C65A,0.22
9,C48U U62G,0.108
10,C50G U63G,0.0983
11,C48A U67A,0.11
12,C48A U67C,0.137
13,A49G A64U,0.0802
14,C48A G57C,0.148
15,A47C G54U,0.241
16,A47C G54C,0.228
17,A47U U62C,0.264
18,C50U U52C,0.343
19,C50U U52A,0.456
20,A47U G68A,0.148
21,A47U G68C,0.26
22,C46G U60C,0.0722
23,A49G U53C,0.363
24,A49G U53G,0.44

row,Variant,self-cleavage
1,C48U G56C,0.104
2,C50U U53A,0.335
3,A49U U62C,0.196
4,C50U G69C,0.142
5,C50U G69A,0.112
6,A49G U62C,0.154
7,A47U A64C,0.0694
8,A47C U70A,0.264
9,C50G G54A,0.487
10,C50G G54U,0.441
11,C48G U55C,0.106
12,C48G U55G,0.143
13,A49G G54A,0.64
14,A49G G54C,0.277
15,A49G G54U,0.541
16,A49C A71C,0.291
17,C50U U58G,0.262
18,C46U U63G,0.221
19,C46U U63A,0.0217
20,C48G U60C,0.0854
21,C50U C65G,0.161
22,C48U U52C,0.194
